Conditions in all cases: both partners purified
Assay [1] addresses T1, pS KaiC (KaiC-EA; S431E, T432A) (UniProt Q79PF4 1-519, S431E | T432A).
T1 construct: KaiC, circadian clock protein of cyanobacteria, phosphomimetic of the pS431 (night) state; also called pS KaiC mutant; source: recombinantly expressed and purified as previously described
T1 sequence (looked up): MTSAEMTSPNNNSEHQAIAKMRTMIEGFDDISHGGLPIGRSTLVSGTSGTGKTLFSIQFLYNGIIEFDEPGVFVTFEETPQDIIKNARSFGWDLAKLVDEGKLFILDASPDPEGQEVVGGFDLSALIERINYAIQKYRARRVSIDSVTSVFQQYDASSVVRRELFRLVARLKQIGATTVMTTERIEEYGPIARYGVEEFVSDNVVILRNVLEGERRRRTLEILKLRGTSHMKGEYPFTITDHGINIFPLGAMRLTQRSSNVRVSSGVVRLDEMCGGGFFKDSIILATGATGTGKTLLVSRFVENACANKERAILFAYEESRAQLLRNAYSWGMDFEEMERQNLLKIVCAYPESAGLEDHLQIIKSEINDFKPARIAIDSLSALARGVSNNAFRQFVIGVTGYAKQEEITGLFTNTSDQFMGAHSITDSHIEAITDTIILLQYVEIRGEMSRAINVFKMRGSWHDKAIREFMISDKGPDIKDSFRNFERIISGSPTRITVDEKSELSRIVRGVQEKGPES
Description: fluorescence polarisation; colloid-linking conditions: 5.5 μM KaiB (55% b-KaiB), 6.5 μM KaiC (wild-type, pT or pS), 2.2 μM KaiA, 0.4 μM FITC-labeled KaiB K25C; time course. Background: In fluorescence polarisation assays a small probe gives low polarisation when free and higher when bound to something large.

The target in assay [2] is T2, KaiC (wild-type) (UniProt Q79PF4 1-519).
T2 construct: KaiC, circadian clock protein of cyanobacteria; hexameric ring; In reactions with KaiA the phosphorylation of S431 and T432 cycles over about 24 h; also called WT KaiC; wild-type KaiC; source: recombinantly expressed and purified as previously described
T2 sequence (looked up): T1 sequence (looked up) with E431S, A432T
Description: fluorescence polarisation; standard oscillator reaction: 1.5 μM KaiA, 3.5 μM KaiC, 3.5 μM KaiB at different ratios of KaiB and b-KaiB, 0.2 μM FITC-labeled KaiB K25C; time course over 144 hrs.

Assay [3] deals with T2, KaiC (wild-type). Description: pull-down; 6.5 μM KaiC (wild-type, pT or pS) and 5.5 μM KaiB (55% b-KaiB, 45% unlabeled KaiB) in Kai buffer (10% glycerol, 150 mM NaCl, 20 mM Tris-HCl pH 8.0, 5 mM MgCl2, 0.5 mM EDTA, 1 mM ATP); 8 hr at 30°C; b-KaiB and partners removed with streptavidin-coated magnetic beads; supernatant analysed by SDS-PAGE.
Assay [4] concerns the target T1, pS KaiC (KaiC-EA; S431E, T432A). The description is as above.

Changes are numbered by the printed parent chain. In names and notes the source's numbering stands.

B1: FITC-labeled KaiB K25C (natural protein, UniProt Q79PF5 1-102, looked up)
chain: MSPRKTYILKLYVAGNTPNSVRALCTLKNILEVEFQGVYALKVIDVLKNPQLAEEDKILATPTLAKVLPLPVRRIIGDLSDREKVLIGLDLLYGELQDSDDF
modifications: FITC label
notes: KaiB, circadian clock protein of cyanobacteria, with K25C; also called fluorescently labeled KaiB
As for B1, the binding result (in assay [1]; with KaiC (wild-type) [2]) was “binds” in each case.

B2: biotinylated KaiB (natural protein, UniProt Q79PF5 1-102, looked up)
chain: B1 chain with C25K
modifications: biotin, amine-reactive (potential sites: lysine residues); EZ-Link-Sulfo-NHS-LC-Biotin at a 50x molar excess to KaiB
notes: KaiB, circadian clock protein of cyanobacteria; In the assays b-KaiB was mixed with unlabeled KaiB (55% b-KaiB, 45% KaiB); also called b-KaiB; source: recombinantly expressed and purified as previously described; biotinylated with EZ-Link-Sulfo-NHS-LC-Biotin
In the case of B2, the binding result (in the assay with KaiC (wild-type) [3]; in assay [4]) was “binds” each time.

Source of the values: PMC10002811, “Timed material self-assembly controlled by circadian clock proteins” (ArXiv, 2024).
